Measured values published in the RNAGym collection of RNA variant scans (doi:10.7554/elife.80360).

B1: Twister Ribozyme (parent)
chain: AACACUGCCAAUGCCGGUCCCAAGCCCGGAUAAAAGUGGAGGGGGCGG

Variants of: B1
Assay: self-cleavage, relative activity (ratio to wild type); higher = more cleavage; co-transcriptional
G16U G44C showed a self-cleavage of 1.05. In the case of G16U G44U, the self-cleavage is reported as 1.14. G16U G45A showed a self-cleavage of 0.608. Variant G16U G47C has a self-cleavage of 0.426. Work on G16U G48A yielded a self-cleavage of 0.898. G16U G48C gave a self-cleavage of 1.06. Work on G16U G48U yielded a self-cleavage of 0.843. For G16U U18C, the self-cleavage was 0.351. Work on G16U U31A yielded a self-cleavage of 1.05. G16U U31C gave a self-cleavage of 0.725. In the case of G16U U37A, the self-cleavage is reported as 0.436. In the case of G16U U37G, the self-cleavage is reported as 0.409. G17A gave a self-cleavage of 0.783. Variant G17A A23C has a self-cleavage of 0.0909. G17A A23G showed a self-cleavage of 0.0743. For G17A A23U, the self-cleavage was 0.28. G17A A30C gave a self-cleavage of 0.275. In the case of G17A A32C, the self-cleavage is reported as 0.303. G17A A32G showed a self-cleavage of 0.6. Work on G17A A32U yielded a self-cleavage of 0.476. In the case of G17A A33C, the self-cleavage is reported as 0.384. With G17A A33U the self-cleavage was 0.614. For G17A A34C, the self-cleavage was 0.0806. In the case of G17A A35C, the self-cleavage is reported as 0.637. With G17A A35G the self-cleavage was 0.262. For G17A C19A, the self-cleavage was 0.104. Variant G17A C19G has a self-cleavage of 0.14. G17A C19U showed a self-cleavage of 0.281. Variant G17A C20A has a self-cleavage of 0.0884. For G17A C20G, the self-cleavage was 0.0402. In the case of G17A C21A, the self-cleavage is reported as 0.101. For G17A C21U, the self-cleavage was 0.0984. Variant G17A C26U has a self-cleavage of 0.923. Variant G17A C27A has a self-cleavage of 0.221. G17A C46A gave a self-cleavage of 0.322. G17A C46G gave a self-cleavage of 0.592. With G17A C46U the self-cleavage was 0.774. For G17A G24C, the self-cleavage was 0.128. G17A G24U showed a self-cleavage of 0.0891. G17A G28A showed a self-cleavage of 0.296. In the case of G17A G28C, the self-cleavage is reported as 0.393. G17A G29A showed a self-cleavage of 0.308. Variant G17A G29C has a self-cleavage of 0.222. Variant G17A G29U has a self-cleavage of 0.336. For G17A G36A, the self-cleavage was 0.141. G17A G36C gave a self-cleavage of 0.118. With G17A G36U the self-cleavage was 0.108. G17A G38A gave a self-cleavage of 0.498. For G17A G39A, the self-cleavage was 0.153. Work on G17A G41A yielded a self-cleavage of 0.148. Work on G17A G41U yielded a self-cleavage of 0.169. For G17A G42C, the self-cleavage was 0.192. In the case of G17A G42U, the self-cleavage is reported as 0.135. With G17A G43A the self-cleavage was 0.156. In the case of G17A G44U, the self-cleavage is reported as 0.704. Variant G17A G45A has a self-cleavage of 0.386. For G17A G45U, the self-cleavage was 0.147. Work on G17A G47A yielded a self-cleavage of 0.297. G17A G47C showed a self-cleavage of 0.224. G17A G47U showed a self-cleavage of 0.489. Variant G17A G48C has a self-cleavage of 0.724. Work on G17A G48U yielded a self-cleavage of 0.603. With G17A U18A the self-cleavage was 0.18. For G17A U18C, the self-cleavage was 0.221. G17A U18G gave a self-cleavage of 0.123. With G17A U31G the self-cleavage was 0.706. For G17A U37A, the self-cleavage was 0.207. In the case of G17C, the self-cleavage is reported as 0.153. Work on G17C A22C yielded a self-cleavage of 0.123. Work on G17C A22U yielded a self-cleavage of 0.0369. G17C A23C gave a self-cleavage of 0.092. G17C A23G gave a self-cleavage of 0.0841. Work on G17C A23U yielded a self-cleavage of 0.0824. G17C A30C showed a self-cleavage of 0.101. Work on G17C A30G yielded a self-cleavage of 0.0984. G17C A30U gave a self-cleavage of 0.143. G17C A32C showed a self-cleavage of 0.0792. G17C A32G showed a self-cleavage of 0.129. With G17C A33C the self-cleavage was 0.0741. G17C A34C gave a self-cleavage of 0.0523. In the case of G17C A35C, the self-cleavage is reported as 0.0982. With G17C A35G the self-cleavage was 0.0629. For G17C A40G, the self-cleavage was 0.0717. Variant G17C C20A has a self-cleavage of 0.0695. G17C C20U gave a self-cleavage of 0.0836. Variant G17C C21G has a self-cleavage of 0.0972. In the case of G17C C21U, the self-cleavage is reported as 0.0868. For G17C C25G, the self-cleavage was 0.0833. Work on G17C C26G yielded a self-cleavage of 0.446. In the case of G17C C27A, the self-cleavage is reported as 0.0647. Variant G17C C46G has a self-cleavage of 0.139. With G17C C46U the self-cleavage was 0.144. Variant G17C G29C has a self-cleavage of 0.0728. For G17C G36C, the self-cleavage was 0.0812. In the case of G17C G36U, the self-cleavage is reported as 0.0484. With G17C G38A the self-cleavage was 0.0789. Variant G17C G38C has a self-cleavage of 0.054. In the case of G17C G39C, the self-cleavage is reported as 0.0888. In the case of G17C G39U, the self-cleavage is reported as 0.0818. G17C G41A gave a self-cleavage of 0.0738. In the case of G17C G41C, the self-cleavage is reported as 0.104. In the case of G17C G41U, the self-cleavage is reported as 0.0841. For G17C G42A, the self-cleavage was 0.0674. G17C G42C gave a self-cleavage of 0.11. G17C G43A gave a self-cleavage of 0.0872. With G17C G43U the self-cleavage was 0.0878. Variant G17C G44U has a self-cleavage of 0.124. Work on G17C G45C yielded a self-cleavage of 0.0995. G17C G45U showed a self-cleavage of 0.107. In the case of G17C G47U, the self-cleavage is reported as 0.0863. Work on G17C G48A yielded a self-cleavage of 0.133. G17C G48U showed a self-cleavage of 0.163. G17C U18A showed a self-cleavage of 0.0862. G17C U18G gave a self-cleavage of 0.0748. In the case of G17C U31C, the self-cleavage is reported as 0.115. In the case of G17C U31G, the self-cleavage is reported as 0.139. With G17C U37A the self-cleavage was 0.0865. G17C U37C showed a self-cleavage of 0.0657. In the case of G17C U37G, the self-cleavage is reported as 0.0835. G17U gave a self-cleavage of 0.497. In the case of G17U A22G, the self-cleavage is reported as 0.103. With G17U A23C the self-cleavage was 0.0677. G17U A23G showed a self-cleavage of 0.0937. In the case of G17U A23U, the self-cleavage is reported as 0.159. In the case of G17U A30C, the self-cleavage is reported as 0.147. G17U A30U gave a self-cleavage of 0.485. Work on G17U A32C yielded a self-cleavage of 0.263. With G17U A32G the self-cleavage was 0.345. G17U A32U gave a self-cleavage of 0.294. In the case of G17U A34U, the self-cleavage is reported as 0.159. G17U A35U gave a self-cleavage of 0.372. In the case of G17U A40U, the self-cleavage is reported as 0.145. For G17U C19G, the self-cleavage was 0.111. With G17U C19U the self-cleavage was 0.143. G17U C20G showed a self-cleavage of 0.105. G17U C20U showed a self-cleavage of 0.167. For G17U C21A, the self-cleavage was 0.0909. G17U C21G gave a self-cleavage of 0.064. With G17U C25A the self-cleavage was 0.0904. G17U C25G showed a self-cleavage of 0.0862. Work on G17U C26A yielded a self-cleavage of 0.719. Variant G17U C27A has a self-cleavage of 0.148. With G17U C46A the self-cleavage was 0.274. In the case of G17U C46U, the self-cleavage is reported as 0.625. G17U G24A gave a self-cleavage of 0.101. In the case of G17U G28C, the self-cleavage is reported as 0.0949. Variant G17U G36C has a self-cleavage of 0.14. G17U G36U showed a self-cleavage of 0.0806. Variant G17U G38U has a self-cleavage of 0.158. For G17U G39C, the self-cleavage was 0.0939. Work on G17U G39U yielded a self-cleavage of 0.108. G17U G41A showed a self-cleavage of 0.103. G17U G41C showed a self-cleavage of 0.0885. Variant G17U G41U has a self-cleavage of 0.101. For G17U G42A, the self-cleavage was 0.104. Variant G17U G42C has a self-cleavage of 0.126. Variant G17U G43U has a self-cleavage of 0.12. With G17U G44A the self-cleavage was 0.219. G17U G44U showed a self-cleavage of 0.374. Work on G17U G45C yielded a self-cleavage of 0.183. G17U G45U gave a self-cleavage of 0.221. In the case of G17U G47A, the self-cleavage is reported as 0.237. In the case of G17U U18C, the self-cleavage is reported as 0.126. With G17U U31C the self-cleavage was 0.495. G17U U37C gave a self-cleavage of 0.085. With U18A A22U the self-cleavage was 0.17. For U18A A23G, the self-cleavage was 0.0959.
